Data taken from PMC9214244, “Multivalent Interaction of Beta-Catenin With its Intrinsically Disordered Binding Partner Adenomatous Polyposis Coli” (Frontiers in Molecular Biosciences, 2022).

Experiments:
Experiment in all cases: fluorescence polarisation; fluorescence anisotropy; β-catenin titrated into 10 nM fluorescein-labelled APC construct; PBS, 1 mM DTT; 15°C; adjusted anisotropy fitted to a Hill equation
[1] = molecular target: pAPCabc D1486S, fluorescein-labelled at Cys 1501 (UniProt P25054)
[2] = molecular target: APCabc, third 20aa repeat (R3) region of APC with subdomains a, b and c, fluorescein-labelled at Cys 1501 (UniProt P25054)
[3] = molecular target: APCbc, APC R3 subdomains b and c (residues 1,483–1,533), fluorescein-labelled at Cys 1501 (UniProt P25054)
[4] = molecular target: pAPCabc with the polyproline linker (PP) inserted between residues 1,500 and 1,501, fluorescein-labelled at Cys 1501 (UniProt P25054)
[5] = molecular target: pAPCc, phospho domain c of APC R3 in the phosphomimetic form, fluorescein-labelled at Cys 1501 (UniProt P25054)
[6] = molecular target: pAPCabc, full-length R3 domain APCabc containing all five phosphomimetics, fluorescein-labelled at Cys 1501 (UniProt P25054)
[7] = molecular target: pAPCabc with the flexible linker (FL) inserted between residues 1,478 and 1,479, fluorescein-labelled at Cys 1501 (UniProt P25054)
[8] = molecular target: APCabc with the flexible linker (FL) inserted between residues 1,500 and 1,501, fluorescein-labelled at Cys 1501 (UniProt P25054)
[9] = molecular target: pAPCabc with the rigid linker (RL) inserted between residues 1,500 and 1,501, fluorescein-labelled at Cys 1501 (UniProt P25054)
[10] = molecular target: APCabc with the flexible linker (FL) inserted between residues 1,478 and 1,479, fluorescein-labelled at Cys 1501 (UniProt P25054)

Chain of armadillo (ARM) repeat domain of human β-catenin (residues 134–671) (P35222 other isoform, or with tags, fused parts or gaps): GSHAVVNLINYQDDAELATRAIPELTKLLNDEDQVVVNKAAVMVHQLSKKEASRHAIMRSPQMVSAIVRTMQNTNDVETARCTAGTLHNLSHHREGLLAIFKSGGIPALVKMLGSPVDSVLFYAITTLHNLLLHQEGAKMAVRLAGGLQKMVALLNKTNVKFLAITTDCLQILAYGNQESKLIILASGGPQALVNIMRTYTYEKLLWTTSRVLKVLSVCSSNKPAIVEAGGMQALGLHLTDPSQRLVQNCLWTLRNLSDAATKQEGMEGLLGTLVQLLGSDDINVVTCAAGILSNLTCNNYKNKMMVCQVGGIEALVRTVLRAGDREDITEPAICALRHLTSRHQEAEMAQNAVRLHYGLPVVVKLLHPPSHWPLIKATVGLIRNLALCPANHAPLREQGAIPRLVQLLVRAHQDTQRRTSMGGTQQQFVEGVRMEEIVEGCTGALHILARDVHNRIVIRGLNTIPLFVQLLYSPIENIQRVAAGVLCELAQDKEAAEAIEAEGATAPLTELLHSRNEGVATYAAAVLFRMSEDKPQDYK

Kd [1]: 30 nM
Kd [2]: 16.5 nM
Kd [3]: 196 nM
Kd [4]: 16.4 nM
Kd [5]: 160 nM
Kd [6]: 5.3 nM
Kd [7]: 18.7 nM
Kd [8]: 28.3 nM
Kd [9]: 10.8 nM
Kd [10]: 21.5 nM
Substance: armadillo (ARM) repeat domain of human β-catenin (residues 134–671) (from UniProt P35222 134-671) (domain or fragment)
